Two molecules from patent US20090081191A1 (MICROMET, published 2009) can be followed below.

Experiment [1] deals with T1, recombinant soluble human 17-1A-antigen (human, UniProt P16422 24-265).
T1 construct: extracellular domain; also called s17-1A; soluble 17-1A-antigen
T1 sequence (looked up): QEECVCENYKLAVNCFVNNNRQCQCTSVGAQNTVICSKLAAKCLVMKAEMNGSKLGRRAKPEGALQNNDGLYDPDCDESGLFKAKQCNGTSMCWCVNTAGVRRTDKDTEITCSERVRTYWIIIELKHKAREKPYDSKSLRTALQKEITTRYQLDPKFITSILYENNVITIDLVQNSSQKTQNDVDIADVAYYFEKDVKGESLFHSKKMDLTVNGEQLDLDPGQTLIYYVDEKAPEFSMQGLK
As to the kind of experiment: SPR (BIACORE 2000), s17-1A immobilized on CM5, 2. set. As to the method:
Surface plasmon resonance measurement was performed using the BIACORE 2000 device (Biacore AB, Freiburg, Freiburg, Germany). Immobilization of recombinant soluble 17-1A-antigen in each flow cell and analysis of the interaction was carried out with an automatic method in BIACORE 2000. The antigen was covalently coupled to sensor chip CM5 via primary amine groups. After activation of the carboxylated dextran matrix of CM5 sensor chip with a single injection of […] of 0.1 M N-hydroxisuccinimide/0.4 M N-ethyl-N′-(3-dimethylaminopropyl)-carbodiimide (NHS/EDC9) through all four flow cells, flow cells 1,2,3 and 4 were successively included into the flow path during injection of s17-1A-antigen (60 μg/ml in 10 mM sodium acetate, pH 4.7). Different contact times of 17-1A to the activated surface lead to approximately 2500 response units (RU9 in flow cell 1, 14000 RU in flow cell 2, 780 RU in flow cell 3 and 290 RU in flow cell 4). Excess activated esters were blocked by injection of 85 μl 1 M ethanolamine pH 5 over all four flow cells. Binding experiments were performed at 25° C. in buffer of pH 7.4 containing 10 mM Hepes, 150 mM NaCl, 3 mM EDTA and 0.005% surfactant P20. The binding kinetics of antibodies to immobilized recombinant 17-1A were determined by injecting antibody concentrations ranging from 0.5 to […]. The sensor chip was regenerated between each run with 100 mM Glycin, 500 mM NaCl, 0.005% Tween pH3. The association and dissociation rate constants, Kon and Koff were analysed using BIA-evaluation software from Biacore AB as described (Karlsson, (1991) J Immunol Meth 145: 229-240).
Two sets of affinity determinations were carried out (1. set: M79, H79, D7.2, Panorex; 2. set: Panorex, HD70); the murine Panorex was also included in set 2 as internal reference.

The target in experiment [2] is recombinant soluble human 17-1A-antigen (human) (UniProt P16422). Described as above.
The target is the same in experiment [3]. As to the kind of experiment: SPR (BIACORE 2000), s17-1A immobilized on CM5, 1. set. Background: In SPR one partner is held on a chip, and binding of the other changes the refractive index at the surface.

B1: HD70 (VD4.5huIgG1-k5.1) (antibody, V domains shown)
VH: EVQLLESGGGVVQPGRSLRLSCAASGFTFSSYGMHWVRQAPGKGLEWVAVISYDGSNKYYADSVKGRFTISRDNSKNTLYLQMNSLRAEDTAVYYCAKDMGWGSGWRPYYYYGMDVWGQGTTVTVSS
VL: ELQMTQSPSSLSASVGDRVTITCRASQSISSYLNWYQQKPGQPPKLLIYWASTRESGVPDRFSGSESGTNYTLTISSLQPEDFATYFCQQSDSLPITFGQGTRLDIQ
notes: Complete human IgG1 antibody produced in CHO cells; also called human HD70; not shown: human IgG1 heavy chain constant region
Consider B1, for which, in experiment [1], the dissociation constant (Kd) came out at 0.39 µM, the koff turned out to be 0.035 s⁻¹ and the association rate constant (kon) worked out at 90000 M⁻¹ s⁻¹.

B2: murine Panorex (antibody, INN chains, looked up, V domains shown)
VH: QVQLQQSGAELVRPGTSVKVSCKASGYAFTNYLIEWVKQRPGQGLEWIGVINPGSGGTNYNEKFKGKATLTADKSSSTAYMQLSSLTSDDSAVYFCARDGPWFAYWGQGTLVTVSA
VL: NIVMTQSPKSMSMSVGERVTLTCKASENVVTYVSWYQQKPEQSPKLLIYGASNRYTGVPDRFTGSGSATDFTLTISSVQAEDLADYHCGQGYSYPYTFGGGTKLEIK
On to B2, for which, in experiment [2], the dissociation constant Kd was determined as 0.27 µM, the off-rate constant (koff) came to 0.027 s⁻¹ and the on-rate (kon) amounted to 100000 M⁻¹ s⁻¹. In experiment [3], the Kd is 0.2 µM, the koff was determined as 0.022 s⁻¹ and the kon came out at 110000 M⁻¹ s⁻¹.

Broadly, the Kd is the free concentration of one partner at which half of the binding sites on the other are occupied at equilibrium, for simple one-to-one binding. The term koff denotes the rate constant with which the complex falls apart. The term kon denotes the second-order rate constant of association.
